Results reported in patent US20120177571A1, “PANCREATIC ENDOCRINE CELL INDICATING AGENT AND UTILIZATION OF SAME” (RIKEN, priority 2009, published 2012).

System: pancreatic beta cells
Settings: in vivo, 70 mg/kg
Procedure: 70 mg of Streptozotocin (STZ), which is selectively toxic to the pancreatic beta cells, was intraperitoneally administered to a rat per kilogram of the weight of the rat. Thus, a diabetic rat whose pancreatic beta cells were damaged was prepared. Next, ^68Ga-DOTA-octreotide (PET probe) was intravenously administered to the model rat in accordance with the method in Example 1. Next, in accordance with the method in Example 1, the abdomen of the model rat was scanned with the use of a PET and image reconstruction was performed. […] Further, as in Example 1, organs etc. were removed from the model rat after the scan, and radioactivity in each of the organs etc. was quantified.

**Q.** For `C[C@@H](O)[C@@H]1NC(=O)[C@H](CCCCN)NC(=O)[C@@H](Cc2c[nH]c3ccccc23)NC(=O)[C@H](Cc2ccccc2)NC(=O)[C@@H](NC(=O)[C@@H](Cc2ccccc2)NC(=O)CN2CCN(CC(=O)O)CCN(CC(=O)O)CCN(CC(=O)O)CC2)CSSC[C@@H](C(=O)N[C@H](CO)[C@@H](C)O)NC1=O` [^68Ga-DOTA-octreotide, metal not drawn], which “accumulation of the PET probe in kidney and liver (PET image), diabetic model rat” value is on record?
**A.** observed
